Earlier results as cited in patent publication US20040047891A1, “Systems devices and methods for intrabody targeted delivery and reloading of therapeutic agents” (priority 2003, published 2004).
Where two headings read alike, the source gives them in different places.

Key:
[1] = molecular target: T1, ET-A receptor (Homo sapiens, UniProt P25101)
T1 sequence (P25101 21-427): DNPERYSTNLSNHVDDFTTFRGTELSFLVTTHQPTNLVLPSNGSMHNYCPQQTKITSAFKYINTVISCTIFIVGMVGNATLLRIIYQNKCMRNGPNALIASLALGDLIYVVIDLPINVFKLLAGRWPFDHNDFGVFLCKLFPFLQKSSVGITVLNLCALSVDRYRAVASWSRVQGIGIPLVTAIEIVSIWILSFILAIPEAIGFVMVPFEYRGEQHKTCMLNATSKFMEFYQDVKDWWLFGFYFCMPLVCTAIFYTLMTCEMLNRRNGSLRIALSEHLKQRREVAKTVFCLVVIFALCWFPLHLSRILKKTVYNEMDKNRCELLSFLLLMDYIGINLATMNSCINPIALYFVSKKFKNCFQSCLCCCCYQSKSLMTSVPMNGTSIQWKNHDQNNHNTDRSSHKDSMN

Row | Time to dissociate from the ET-A receptor [1] | Molecule | Koff (pH 2) | Koff (pH 3) | Koff (pH 5) | Koff (pH 7) | Koff (pH 1.7) | Koff (pH 9.2) | Koff (pH 10.5)
1 | ≤ 2 h | CCCCN(CCCC)C(=O)CN1C[C@H](c2ccc3c(c2)OCO3)[C@@H](C(=O)O)[C@@H]1c1ccc(OC)cc1 [ABT-627] | – | – | – | – | – | – | –
2 | – | Avidin: biotin-binding protein, source chicken egg white; member of the biotin-avidin binding pair | 200 sec^−1 · 10^7 | 9 sec^−1 · 10^7 | 0.9 sec^−1 · 10^7 | 0.4 sec^−1 · 10^7 | – | – | –
3 | – | Streptavidin: avidin derivative, source fermentation, no carbohydrates | – | 19 sec^−1 · 10^7 | 8.7 sec^−1 · 10^7 | 28 sec^−1 · 10^7 | 35 sec^−1 · 10^7 | 64 sec^−1 · 10^7 | 100 sec^−1 · 10^7
